Test results reported in publication PMC11868491.

Legend:
[1] = target: T1, His6-Crz1(N339-S678) (Saccharomyces cerevisiae BY4743, UniProt P53968 339-678); assay: EMSA
[2] = target: T1, His6-Crz1(N339-S678); assay: competition

T1 sequence (P53968 339-678): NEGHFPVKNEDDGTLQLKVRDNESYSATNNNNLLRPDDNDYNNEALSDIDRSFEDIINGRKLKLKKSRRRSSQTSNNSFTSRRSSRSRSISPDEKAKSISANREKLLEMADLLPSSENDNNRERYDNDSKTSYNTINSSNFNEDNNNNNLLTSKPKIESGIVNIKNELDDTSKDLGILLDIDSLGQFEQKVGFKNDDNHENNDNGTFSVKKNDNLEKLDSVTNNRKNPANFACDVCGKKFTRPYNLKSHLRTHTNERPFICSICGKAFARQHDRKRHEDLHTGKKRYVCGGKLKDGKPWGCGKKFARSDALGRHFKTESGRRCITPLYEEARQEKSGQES

B1: EMSA_probe-Crz1/CMK2-F/R (DIG-labeled) (dsDNA)
DNA 1: AACGCAGCGCGAAGAGAATAATTGAGGCTTATCTTAGAACCCTGCCCCC
DNA 2: GGGGGCAGGGTTCTAAGATAAGCCTCAATTATTCTCTTCGCGCTGCGTT
B1: binds [1].

B2: EMSA_probe-Crz1/CMK2-F/R (unlabeled competitor) (dsDNA)
DNA 1: AACGCAGCGCGAAGAGAATAATTGAGGCTTATCTTAGAACCCTGCCCCC
DNA 2: GGGGGCAGGGTTCTAAGATAAGCCTCAATTATTCTCTTCGCGCTGCGTT
B2: binds [2].
